From US20150010932A1 (SALK INSTITUTE FOR BIOLOGICAL STUDIES, published 2015)

B3: cLuc-linker-HA-Mdm2_RING (other)
chain: MSGYVNNPEATNALIDKDGWLHSGDIAYWDEDEHFFIVDRLKSLIKYKGYQVAPAELESILLQHPNIFDAGVAGLPDDDAGELPAAVVVLEHGKTMTEKEIVDYVASQVTTAKKLRGGVVFVDEVPKGLTGKLDARKIREILIKAKKGGKIAVGGGSGGGQISYASRGYPYDVPDYAGSSSLPLNAIEPCVICQGRPKNGCIVHGKTGHLMACFTCAKKLKKRNKPCPVCRQPIQMIVLTYFP
notes: range 428-491; Expressed from pLi283; also called cLuc-Mdm2_RING; Mdm2 RING domain
B6: nLuc-linker-HA-Mdm4_RING (other)
chain: MEDAKNIKKGPAPFYPLEDGTAGEQLHKAMKRYALVPGTIAFTDAHIEVDITYAEYFEMSVRLAEAMKRYGLNTNHRIVVCSENSLQFFMPVLGALFIGVAVAPANDIYNERELLNSMGISQPTVVFVSKKGLQKILNVQKKLPIIQKIIIMDSKTDYQGFQSMYTFVTSHLPPGFNEYDFVPESFDRDKTIALIMNSSGSTGLPKGVALPHRTACVRFSHARDPIFGNQIIPDTAILSVVPFHHGFGMFTTLGYLICGFRVVLMYRFEEELFLRSLQDYKIQSALLVPTLFSFFAKSTLIDKYDLSNLHEIASGGAPLSKEVGEAVAKRFHLPGIRQGYGLTETTSAILITPEGDDKPGAVGKVVPFFEAKVVDLDTGKTLGVNQRGELCVRGPMIMSGYVNNPEATNALIDKDGGGGSGGGQISYASRGYPYDVPDYAGSMEDCQNLLKPCSLCEKRPRDGNIIHGRTGHLVTCFHCARRLKKAGASCPICKKEIQLVIKVFIA
notes: range 427-490; Expressed from pLi283 and pLi285; also called nLuc-Mdm4_RING; Mdm4 RING domain

Assays:
nLuc-linker-HA-Ube2t [1] = molecular target: T1, nLuc-linker-HA-Ube2t (UniProt Q9NPD8 1-197, limits assumed); test: ReBiL BiLC in living U2OS cells at 35° C
T1 construct: Expressed from pLi505 and pLi506; also called nLuc-Ube2t; nLuc-Linker1-HA-Ube2t; not shown: linker-HA

nLuc-linker-HA-Ube2t [2] = molecular target: T1, nLuc-linker-HA-Ube2t; test: ReBiL BiLC in living U2OS cells at 35° C (FIG. 23C)
nLuc-linker-HA-Mdm4_RING [3] = molecular target: B6; test: BiLC in U2OS cell lysates, three lysis buffers
nLuc-linker-HA-Mdm4_RING [4] = molecular target: B6; test: BiLC in cells and in cell lysate (FIGS. 16 and 12)
TAT-PMI = test: lysate BiLC (FIG. 13B); disruption of nLuc-p53 / cLuc-Mdm4
cLuc-linker-HA-Mdm2_RING = molecular target: B3; test: BiLC in cell lysate with PPI lysis buffer PLB; reference is the Mdm4_RING / Mdm2_RING_C464A pair
cLuc-linker-HA = molecular target: T2, cLuc-linker-HA (Photinus pyralis (Common eastern …, UniProt P08659 398-547 = luciferase)); test: quantitative ReBiL assay in U2OS cells (FIG. 17D)
T2 construct: Expressed from pLi635, no fusion partner; also called cLuc-HA; cLuc alone; not shown: linker-HA

T1 sequence (Q9NPD8 whole entry): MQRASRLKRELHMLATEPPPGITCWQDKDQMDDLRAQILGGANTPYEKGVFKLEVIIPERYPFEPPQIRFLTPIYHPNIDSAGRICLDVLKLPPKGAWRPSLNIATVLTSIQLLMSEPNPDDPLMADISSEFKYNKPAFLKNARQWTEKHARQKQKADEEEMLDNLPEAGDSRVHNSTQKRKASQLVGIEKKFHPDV

B1: cLuc-linker-FLAG-FANCL_WT (other)
chain: MSGYVNNPEATNALIDKDGWLHSGDIAYWDEDEHFFIVDRLKSLIKYKGYQVAPAELESILLQHPNIFDAGVAGLPDDDAGELPAAVVVLEHGKTMTEKEIVDYVASQVTTAKKLRGGVVFVDEVPKGLTGKLDARKIREILIKAKKGGKIAVGGGSGGGQISYASRGDYKDDDDKSGAVTEASLLRQCPLLLPQNRSKTVYEGFISAQGRDFHLRIVLPEDLQLKNARLLCSWQLRTILSGYHRIVQQRMQHSPDLMSFMMELKMLLEVALKNRQELYALPPPPQFYSSLIEEIGTLGWDKLVYADTCFSTIKLKAEDASGREHLITLKLKAKYPAESPDYFVDFPVPFCASWTPQSSLISIYSQFLAAIESLKAFWDVMDEIDEKTWVLEPEKPPRSATARRIALGNNVSINIEVDPRHPTMLPECFFLGADHVVKPLGIKLSRNIHLWDPENSVLQNLKDVLEIDFPARAILEKSDFTMDCGICYAYQLDGTIPDQVCDNSQCGQPFHQICLYEWLRGLLTSRQSFNIIFGECPYCSKPITLKMSGRKH
notes: mature; Expressed from pLi505; also called cLuc-FANCL
binding result (nLuc-linker-HA-Ube2t [1]): binds

B2: cLuc-linker-FLAG-FANCL_C307A (other)
chain: MSGYVNNPEATNALIDKDGWLHSGDIAYWDEDEHFFIVDRLKSLIKYKGYQVAPAELESILLQHPNIFDAGVAGLPDDDAGELPAAVVVLEHGKTMTEKEIVDYVASQVTTAKKLRGGVVFVDEVPKGLTGKLDARKIREILIKAKKGGKIAVGGGSGGGQISYASRGDYKDDDDKSGAVTEASLLRQCPLLLPQNRSKTVYEGFISAQGRDFHLRIVLPEDLQLKNARLLCSWQLRTILSGYHRIVQQRMQHSPDLMSFMMELKMLLEVALKNRQELYALPPPPQFYSSLIEEIGTLGWDKLVYADTCFSTIKLKAEDASGREHLITLKLKAKYPAESPDYFVDFPVPFCASWTPQSSLISIYSQFLAAIESLKAFWDVMDEIDEKTWVLEPEKPPRSATARRIALGNNVSINIEVDPRHPTMLPECFFLGADHVVKPLGIKLSRNIHLWDPENSVLQNLKDVLEIDFPARAILEKSDFTMDAGICYAYQLDGTIPDQVCDNSQCGQPFHQICLYEWLRGLLTSRQSFNIIFGECPYCSKPITLKMSGRKH
notes: mature; Expressed from pLi506
binding result (nLuc-linker-HA-Ube2t [2]): no binding

B3
binding result (nLuc-linker-HA-Mdm4_RING [3]): binds

B4: cLuc-linker-HA-Mdm2_RING-C464A (other)
chain: MSGYVNNPEATNALIDKDGWLHSGDIAYWDEDEHFFIVDRLKSLIKYKGYQVAPAELESILLQHPNIFDAGVAGLPDDDAGELPAAVVVLEHGKTMTEKEIVDYVASQVTTAKKLRGGVVFVDEVPKGLTGKLDARKIREILIKAKKGGKIAVGGGSGGGQISYASRGYPYDVPDYAGSSSLPLNAIEPCVICQGRPKNGCIVHGKTGHLMACFTAAKKLKKRNKPCPVCRQPIQMIVLTYFP
notes: range 428-491; Expressed from pLi285; also called Mdm2_C464A
binding result (nLuc-linker-HA-Mdm4_RING [4]): no binding

B5: cLuc-linker-FLAG-Mdm4-111 (other)
chain: MSGYVNNPEATNALIDKDGWLHSGDIAYWDEDEHFFIVDRLKSLIKYKGYQVAPAELESILLQHPNIFDAGVAGLPDDDAGELPAAVVVLEHGKTMTEKEIVDYVASQVTTAKKLRGGVVFVDEVPKGLTGKLDARKIREILIKAKKGGKIAVGGGSGGGQISYASRGDYKDDDDKSGTSFSTSAQCSTSDSACRISPGQINQVRPKLPLLKILHAAGAQGEMFTVKEVMHYLGQYIMVKQLYDQQEQHMVYCGGDLLGELLGRQSFSVKDPSPLYDMLRKNLVTLAT
notes: range 2-111; Expressed from pLi354 with nLuc-p53; also called cLuc-Mdm4
binding result (TAT-PMI): binds

B6
BiLC signal (wild type) to noise (mutant) ratio (cLuc-linker-HA-Mdm2_RING): > 1000 fold

B7: nLuc-linker-HA (other)
chain: MEDAKNIKKGPAPFYPLEDGTAGEQLHKAMKRYALVPGTIAFTDAHIEVDITYAEYFEMSVRLAEAMKRYGLNTNHRIVVCSENSLQFFMPVLGALFIGVAVAPANDIYNERELLNSMGISQPTVVFVSKKGLQKILNVQKKLPIIQKIIIMDSKTDYQGFQSMYTFVTSHLPPGFNEYDFVPESFDRDKTIALIMNSSGSTGLPKGVALPHRTACVRFSHARDPIFGNQIIPDTAILSVVPFHHGFGMFTTLGYLICGFRVVLMYRFEEELFLRSLQDYKIQSALLVPTLFSFFAKSTLIDKYDLSNLHEIASGGAPLSKEVGEAVAKRFHLPGIRQGYGLTETTSAILITPEGDDKPGAVGKVVPFFEAKVVDLDTGKTLGVNQRGELCVRGPMIMSGYVNNPEATNALIDKDG
notes: Expressed from pLi635, no fusion partner; also called nLuc-HA; nLuc alone; not shown: linker-HA
binding result (cLuc-linker-HA): no binding
